Data as given in patent US20260234255A1 (Genmab, published 2026).
Changes are numbered by the printed parent chain.

B1: bsG1-huCD3-FEALxCD30-MDX060-FEAR (bispecific antibody, human IgG1, kappa, lambda)
heavy 1: not shown
light 1: not shown
heavy 2: QVQLQQWGAGLLKPSETLSLTCAVYGGSFSAYYWSWIRQPPGKGLEWIGDINHGGGTNYNPSLKSRVTISVDTSKNQFSLKLNSVTAADTAVYYCASLTAYWGQGSLVTVSSASTKGPSVFPLAPSSKSTSGGTAALGCLVKDYFPEPVTVSWNSGALTSGVHTFPAVLQSSGLYSLSSVVTVPSSSLGTQTYICNVNHKPSNTKVDKRVEPKSCDKTHTCPPCPAPEFEGGPSVFLFPPKPKDTLMISRTPEVTCVVVAVSHEDPEVKFNWYVDGVEVHNAKTKPREEQYNSTYRVVSVLTVLHQDWLNGKEYKCKVSNKALPAPIEKTISKAKGQPREPQVYTLPPSREEMTKNQVSLTCLVKGFYPSDIAVEWESNGQPENNYKTTPPVLDSDGSFFLYSRLTVDKSRWQQGNVFSCSVMHEALHNHYTQKSLSLSPG
light 2: DIQMTQSPTSLSASVGDRVTITCRASQGISSWLTWYQQKPEKAPKSLIYAASSLQSGVPSRFSGSGSGTDFTLTISSLQPEDFATYYCQQYDSYPITFGQGTRLEIKRTVAAPSVFIFPPSDEQLKSGTASVVCLLNNFYPREAKVQWKVDNALQSGNSQESVTEQDSKDSTYSLSSTLTLSKADYEKHKVYACEVTHQGLSSPVTKSFNRGEC
notes: also called bsG1-huCD3xCD30-MDX060
B2: bsG1-huCD3-FEALxCD30-MDX060-FERR (bispecific antibody, human IgG1, kappa, lambda)
heavy 1: not shown
light 1: not shown
heavy 2: B1 heavy 2 with G231R, A260D
light 2: B1 light 2
notes: Bispecific IgG1 made by controlled Fab-arm exchange; also called bsIgG1-huCD3-FEALxCD30-MDX060-FERR; bsG1-huCD3×CD30-MDX060

What was measured:
human CD30 [1] = target: T1, human CD30 (human, UniProt P28908 19-595); test: flow cytometry, HDLM-2 cells
T1 construct: also called huCD30; TNFRSF8
T1 sequence: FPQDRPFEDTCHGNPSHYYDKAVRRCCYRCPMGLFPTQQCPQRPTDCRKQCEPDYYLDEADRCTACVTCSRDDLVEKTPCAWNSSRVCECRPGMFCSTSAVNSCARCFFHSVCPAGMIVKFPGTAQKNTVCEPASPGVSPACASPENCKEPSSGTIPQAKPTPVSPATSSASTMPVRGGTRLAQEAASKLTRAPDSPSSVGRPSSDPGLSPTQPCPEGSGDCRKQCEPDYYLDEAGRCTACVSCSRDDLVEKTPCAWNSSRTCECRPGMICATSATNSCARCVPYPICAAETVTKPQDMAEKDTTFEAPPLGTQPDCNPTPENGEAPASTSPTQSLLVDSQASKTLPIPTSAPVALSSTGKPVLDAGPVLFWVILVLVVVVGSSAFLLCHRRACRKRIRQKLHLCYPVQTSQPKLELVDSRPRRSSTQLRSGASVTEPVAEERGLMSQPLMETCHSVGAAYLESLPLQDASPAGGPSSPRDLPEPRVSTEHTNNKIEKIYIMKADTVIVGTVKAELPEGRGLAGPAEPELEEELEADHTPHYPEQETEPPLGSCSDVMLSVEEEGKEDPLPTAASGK
Summary of the method: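 CD3×CD30 bispecific antibodies, 3-fold serial dilutions from 0.0046 to 10 μg/mL, incubated with 3×10⁴ SU-DHL-1 (ALCL) or HDLM-2 (HL) cells for 30 min at 4 °C, then secondary antibody 30 min at 4 °C. Live cells gated by FSC/SSC and TO-PRO-3 exclusion; binding curves fitted by four-parameter sigmoidal regression.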

human CD30 [2] = target: T1, human CD30; test: flow cytometry, DEL cells, experiment N = 2
human CD30 [3] = target: T1, human CD30; test: flow cytometry, KI-JK cells, experiment N = 1
human CD30 [4] = target: T1, human CD30; test: flow cytometry, Expi293F cells transfected with human CD30
Experimental: Cells (3×10⁴ cells/well) were incubated in polystyrene 96-well round-bottom plates (Greiner bio-one, cat. no. 650180) with serial dilutions of antibodies (ranging from 0.005 to 10 μg/mL in 3-fold dilution steps) in 100 μL staining buffer at 4° C. for 30 min. Experiments were performed in technical duplicate. After washing twice in staining buffer, cells were incubated in 50 μL secondary antibody at 4° C. for 30 min. As a secondary antibody, R-PE-conjugated goat-anti-human IgG (Jackson ImmunoResearch, UK; cat. no. 109⁻¹¹⁶-098) diluted 1:400 in staining buffer was used. Cells were washed twice in staining buffer, resuspended in 30 μL staining buffer containing 0.4% EDTA and analyzed on an iQue Screener (Intellicyt Corporation, USA). Binding curves were analyzed using non-linear regression (sigmoidal dose-response with variable slope) using GraphPad Prism V9.0.0 software (GraphPad Software, San Diego, CA, USA).

human CD30 [5] = target: T1, human CD30; test: flow cytometry, HH cells (CTCL), average of 3 tests
Experimental: (§1) Cells (3×10⁴ cells/well) were incubated in polystyrene 96-well round-bottom plates (Greiner bio-one, cat. no. 650180) with serial dilutions of antibodies (range 0.0046 to 10 μg/mL in 3-fold dilution steps) in 50 μL staining buffer at 4° C. for 30 min. After washing twice in staining buffer, cells were incubated with 50 μL secondary antibody at 4° C. for 30 min. […] Next, cells were washed twice in staining buffer, resuspended in 100 μL staining buffer supplemented with TO-PRO-3 iodide (Thermo Fisher Scientific; cat. no. T3605; 1:8000 dilution) and analyzed on a FACSCelesta flow cytometer (BD Biosciences, USA). Live cells were gated based on FSC/SSC and absence of TOPRO-3 staining. Binding curves were analyzed by non-linear regression of log-transformed data (sigmoidal dose-response with variable slope, four parameters) using GraphPad Prism V7.02 software (GraphPad Software, San Diego, CA, USA).

human CD30 [6] = target: T1, human CD30; test: flow cytometry, L-82 cells (ALCL), range of 2 tests
Experimental: as §1

human CD30 [7] = target: T1, human CD30; test: flow cytometry, DL-40 cells (ALCL), range of 3 tests
Experimental: as §1

human CD30 [8] = target: T1, human CD30; test: flow cytometry, KM-H2 cells (HL), average of 3 tests
Experimental: as §1

human CD30 [9] = target: T1, human CD30; test: flow cytometry, L-540 cells (HL), average of 3 tests
Experimental: as §1

human CD30 [10] = target: T1, human CD30; test: flow cytometry, NCEB-1 cells (MCL), range of 3 tests
Experimental: as §1

human CD30 [11] = target: T1, human CD30; test: flow cytometry, L-82 cells (ALCL), average of 2 tests
Experimental: as §1

human CD30 [12] = target: T1, human CD30; test: flow cytometry, SUP-M2 cells (ALCL), range of 3 tests
Experimental: as §1

human CD30 [13] = target: T1, human CD30; test: flow cytometry, DL-40 cells (ALCL), average of 3 tests
Experimental: as §1

human CD30 [14] = target: T1, human CD30; test: flow cytometry, KI-JK cells (ALCL), average of 3 tests
Experimental: as §1

human CD30 [15] = target: T1, human CD30; test: flow cytometry, KARPAS-299 cells (ALCL), average of 2 tests
Experimental: as §1

Binder | EC50 (read off the curve) (human CD30 [1]) | EC50 (human CD30 [2]) | EC50 (human CD30 [3]) | EC50 (read off the curve) (human CD30 [4]) | EC50 (human CD30 [5]) | EC50 (human CD30 [6]) | EC50 (human CD30 [7]) | EC50 (human CD30 [8]) | EC50 (human CD30 [9]) | EC50 (human CD30 [10]) | EC50 (human CD30 [11]) | EC50 (human CD30 [12]) | EC50 (human CD30 [13]) | EC50 (human CD30 [14]) | EC50 (human CD30 [15])
B1 | ~0.3 µg/mL | 0.0568 µg/mL | 0.16 µg/mL | ~0.09 µg/mL |  |  |  |  |  |  |  |  |  |  | 
B2 |  |  |  |  | 0.195 µg/mL | 0.184 to 0.215 µg/mL | 0.17 to 0.347 µg/mL | 0.159 µg/mL | 0.323 µg/mL | 0.118 to 0.2 µg/mL | 0.2 µg/mL | 0.134 to 0.223 µg/mL | 0.236 µg/mL | 0.191 µg/mL | 0.202 µg/mL
